Assay results: publication doi:10.1101/2023.02.19.529116 (bioRxiv, 2023)

B2: Smaug 70-281 (domain or fragment, Drosophila, UniProt Q23972 70-281, looked up)
chain: SNALFCEQVTTVTNLFEKWNDCERTVVMYALLKRLRYPSLKFLQYSIDSNLTQNLGTSQTNLSSVVIDINANNPVYLQNLLNAYKTFQPCDLLDAMSSSSSDKDSMPCYGSDFQITTSAQCDERKLYARKEDILHEVLNMLPLLKPGNEEAKLIYLTLIPVAVKDTMQQIVPTELVQQIFSYLLIHPAITSEDRRSLNIWLRHLEDHIQAAA
B3: Smoothened 970-1003 synthetic peptide (peptide, UniProt P91682 970-1003, looked up)
peptide: VPSYGEDELQQAMRLLNAASRQRTEAANEDFGGT
B4: Smaug 73-278Δ156-196 (Smaug part of the single-chain construct) (domain or fragment, Drosophila, UniProt Q23972 73-278, looked up)
chain: LFCEQVTTVTNLFEKWNDCERTVVMYALLKRLRYPSLKFLQYSIDSNLTQNLGTSQTNLSSVVIDINANNPVYLQNLLNAYKTARKEDILHEVLNMLPLLKPGNEEAKLIYLTLIPVAVKDTMQQIVPTELVQQIFSYLLIHPAITSEDRRSLNIWLRHLEDHIQ

Columns and labels:
[1] = target: the molecule itself; test: crystal structure
[2] = target: B3; test: ITC
[3] = target: B2; test: ITC
[4] = target: B4; test: crystal structure
[5] = target: the molecule itself; test: crystal structure; remark: listed apart in the source

B1: His-Hs-SAMD4A 2-156 (domain or fragment, human, UniProt Q9UPU9 2-156, looked up)
chain: MFRDQVGVLAGWFKGWNECEQTVALLSLLKRVSQTQARFLQLCLEHSLADCAELHVLEREANSPGIINQWQQESKDKVISLLLTHLPLLKPGNLDAKVEYMKLLPKILAHSIEHNQHIEESRQLLSYALIHPATSLEDRSALAMWLNHLEDRTST
stoichiometry N [1]: 2

B2
stoichiometry N [2]: 1

B3
Kd [3]: 800 nM

VPSYGEDELQQAMRLLNAASRQRTEAANEDFGGT (peptide, UniProt P91682 970-1003, looked up) [Smo 970-1003 (Smoothened part of the single-chain construct)]
binding result [4]: binds

B4
binding result [5]: binds
